# How the values were obtained:
# [1] = target: Catcher-Ferritin (Catcher of the isopeptide linkage system, flexible linker, Ferritin NP subunit); assay: SDS-PAGE densitometry of the covalent conjugate; catcher-Ferritin and gE-Tag mixed at a 1:6 molar ratio, 24 h at 4°C; uncoupled gE-Tag removed by SEC (Superdex 200 Increase, 20 mM Tris-HCl, 25% sucrose w/v, pH 7.4); coupling efficiency by densitometry of reduced SDS-PAGE; isopeptide bond between Tag and Catcher
# [2] = target: Catcher-AP205 (Catcher of the isopeptide linkage system, flexible linker, bacteriophage AP205 VLP subunit) (bacteriophage AP205); assay: SDS-PAGE densitometry of the covalent conjugate; catcher-AP205 and gE-Tag mixed at a 1:2 molar ratio, 24 h at 22°C, then dialysed into 50 mM glycine, 25 mM sodium citrate, 0.1% Tween 20, pH 6.2; coupling efficiency by densitometry of reduced SDS-PAGE; isopeptide bond between Tag and Catcher
substance,measurement,setting,value
gE-Tag (extracellular domain of VZV glycoprotein E with a C-terminal Tag of the isopeptide linkage system) (from UniProt P09259 31-544),conjugation efficiency,[1],> 70%
same,conjugation efficiency,[2],> 70%

# — publication PMC11286566
